Like-named read-outs stand apart in the source and are kept apart here. Blank lines part the entries; values can stand above or below the binder they belong to.
Columns and labels:
Experiment in all cases: MST
[1] = molecular target: sarco/endoplasmic reticulum Ca2+-ATPase (SERCA), native rabbit, detergent solubilized (rabbit) (UniProt P04191)
[2] = molecular target: sarco/endoplasmic reticulum Ca2+-ATPase (SERCA), native rabbit, detergent solubilized (rabbit) (UniProt P04191); remark: listed apart in the source
[3] = molecular target: sarco/endoplasmic reticulum Ca2+-ATPase (SERCA), native rabbit, detergent solubilized (rabbit) (UniProt P04191); remark: listed apart in the source

Chain of UniProt P04191 (P04191 whole entry): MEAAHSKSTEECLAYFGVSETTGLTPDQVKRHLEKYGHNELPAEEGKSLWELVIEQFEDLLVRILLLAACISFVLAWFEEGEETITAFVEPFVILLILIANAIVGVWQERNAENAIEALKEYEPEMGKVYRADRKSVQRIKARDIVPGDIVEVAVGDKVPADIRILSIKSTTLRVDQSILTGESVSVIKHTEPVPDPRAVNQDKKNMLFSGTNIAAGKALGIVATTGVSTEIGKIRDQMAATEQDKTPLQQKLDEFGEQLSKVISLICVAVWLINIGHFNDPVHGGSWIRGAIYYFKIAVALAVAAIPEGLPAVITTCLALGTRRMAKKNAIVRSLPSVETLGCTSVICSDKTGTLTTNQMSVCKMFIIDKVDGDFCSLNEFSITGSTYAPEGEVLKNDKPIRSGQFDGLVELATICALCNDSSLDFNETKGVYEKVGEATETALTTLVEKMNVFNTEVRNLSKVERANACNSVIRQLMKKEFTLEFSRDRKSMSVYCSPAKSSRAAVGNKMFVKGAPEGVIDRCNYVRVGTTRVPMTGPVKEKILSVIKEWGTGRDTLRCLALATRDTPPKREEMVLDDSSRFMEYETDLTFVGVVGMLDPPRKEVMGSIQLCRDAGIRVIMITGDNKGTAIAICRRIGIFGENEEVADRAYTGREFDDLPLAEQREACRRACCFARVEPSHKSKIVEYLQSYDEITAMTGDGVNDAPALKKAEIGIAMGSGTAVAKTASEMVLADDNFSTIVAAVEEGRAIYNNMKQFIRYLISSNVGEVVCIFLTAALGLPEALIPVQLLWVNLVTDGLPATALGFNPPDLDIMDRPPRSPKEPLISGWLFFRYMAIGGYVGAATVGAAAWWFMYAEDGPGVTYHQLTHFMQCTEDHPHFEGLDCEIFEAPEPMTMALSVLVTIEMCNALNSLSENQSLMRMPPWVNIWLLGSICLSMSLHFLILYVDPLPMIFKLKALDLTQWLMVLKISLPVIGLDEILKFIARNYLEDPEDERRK

Kd [1]: 5600 nM
Kd [2]: 140 nM
fold decrease in affinity with increased KCl concentration [2]: > 100 fold
fold decrease in affinity, 200 mM against 50 mM KCl [2]: > 300 fold
Kd [3]: 500 to 1000 nM
B1: rabbit HRC (496-656) (domain or fragment)
chain: STENGHQAHRHQGHGKEEAEVTSDEHHHHVPDHGHQGHGDKEGEEEGVSTDHWHQVPRHAHHGPGGEEEGGEEELTVKAGHHVASHPPPGHRSREGHAEEHQTEVPGHHQHRMGDTDTSAERGHPASSPRQQGHPPEDTVHHHRGSLKEEVGPESPGPAGV

fold loss of affinity on removal of residues 640-666 [2]: 10 fold
B2: rabbit HRC (458-640) (domain or fragment)
chain: GEEEDEDDDDEGEHHHVPHRGHRGHEEDDGGDDDDGDDSTENGHQAHRHQGHGKEEAEVTSDEHHHHVPDHGHQGHGDKEGEEEGVSTDHWHQVPRHAHHGPGGEEEGGEEELTVKAGHHVASHPPPGHRSREGHAEEHQTEVPGHHQHRMGDTDTSAERGHPASSPRQQGHPPEDTVHHHRG

fold reduction of affinity by C-terminal truncation [2]: > 1000 fold
B3: rabbit HRC (458-520) (domain or fragment)
chain: GEEEDEDDDDEGEHHHVPHRGHRGHEEDDGGDDDDGDDSTENGHQAHRHQGHGKEEAEVTSDE

Reference: publication doi:10.1101/2020.09.17.302869
